From article PMC6212398 (Nature Communications, 2018) come the findings set out here.

What all share (assay): ITC; peptide (1 mM) titrated into a cell with Hsp27 proteins (100 µM); SEC buffer (50 mM sodium phosphate, 100 mM NaCl); 25 °C; one-site binding model
Common to all, as to conditions: both partners purified

Test [1] addresses T1, Hsp27 alpha-crystallin domain (ACD, residues Q80–S176) (human, UniProt P04792 80-176).
T1 construct: Human Hsp27 (HSPB1), alpha-crystallin domain, residues Q80–S176; Used 15N-labelled (observed in HSQC) and unlabelled; Vector was a gift of the Klevit laboratory; also called Hsp27 ACD

Test [2] addresses T2, Hsp27 ΔNTD (residues 80–205) (human, UniProt P04792 80-205).
T2 construct: Human Hsp27 (HSPB1) without the N-terminal domain, residues 80–205; Heterogeneous mixture of 3–5 mers; source: E. coli BL21 (DE3), purified (Ni-NTA, size exclusion)

Test [3] addresses T3, Hsp27 3D (pseudo-phosphorylation mutant S15D, S78D, S82D) (human, UniProt P04792 1-205, S15 replaced with aspartate | S78 replaced with aspartate | S82 replaced with …).
T3 construct: Human Hsp27 (HSPB1) in which three serines (S15, S78 and S82) are replaced with aspartate; Vector was a gift of the Dickey laboratory; Compared throughout with the full-length wild type, so probably the whole protein

T1 sequence (P04792 80-176): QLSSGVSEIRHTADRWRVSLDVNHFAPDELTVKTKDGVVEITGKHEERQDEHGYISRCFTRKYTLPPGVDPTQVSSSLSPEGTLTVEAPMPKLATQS
T2 sequence (P04792 80-205, stated change not applied): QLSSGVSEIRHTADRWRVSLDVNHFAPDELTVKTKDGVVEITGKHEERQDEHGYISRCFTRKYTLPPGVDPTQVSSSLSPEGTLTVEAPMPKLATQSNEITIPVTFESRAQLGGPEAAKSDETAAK
T3 sequence (P04792 whole entry S15D/S78D/S82D): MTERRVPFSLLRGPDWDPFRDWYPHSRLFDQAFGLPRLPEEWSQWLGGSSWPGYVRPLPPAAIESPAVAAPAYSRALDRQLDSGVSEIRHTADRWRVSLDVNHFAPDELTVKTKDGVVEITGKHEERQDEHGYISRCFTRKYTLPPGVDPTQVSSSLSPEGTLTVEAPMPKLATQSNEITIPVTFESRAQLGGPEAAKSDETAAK

B1: Hsp27 IPV peptide (native 9-mer EITIPVTFE) (peptide)
peptide: EITIPVTFE
notes: Human Hsp27 (HSPB1), C-terminal IPV (IXI) motif, 9-mer; source: synthetic peptide, bought: Genescript
As for B1, the Kd (commonly the free concentration of one partner at which half of the binding sites on the other are occupied at equilibrium, for simple one-to-one binding) in test [1] was > 25 µM.

B2: Hsp27 IPV H peptide with the second X residue (Pro) of IXIXV mutated to alanine (EITIAVTHE) (peptide)
peptide: EITIAVTHE
notes: Human Hsp27 (HSPB1) IPV peptide in the His-containing context with the proline of IPV mutated to alanine; source: synthetic peptide, bought: Genescript
For the molecule B2, the dissociation constant Kd in test [1] is ~5 µM.

B3: Hsp27 IPV H peptide (EITIPVTHE) (peptide)
peptide: EITIPVTHE
notes: Human Hsp27 (HSPB1) IPV 9-mer with the penultimate phenylalanine swapped for histidine (the residue at this position in the motif of BAG3); also called His-containing IPV peptide; chimeric peptide; source: synthetic peptide, bought: Genescript
Take B3: the Kd in test [1] is 11.5 µM; in test [2] it was 11.4 µM; in test [3], > 50 µM.

B4: Hsp27 IPV H peptide with Val181 mutated to alanine (peptide)
chain: EITIPATHE
modifications: EITIPATHE. The paper numbers the peptide from E176, so printed Val181 (V of IPV) is UniProt V183. Peptide termini chemistry is not stated.
As for B4, in test [1], the Kd was > 25 µM.

B5: Hsp27 IPV H peptide with Ile179 mutated to alanine (peptide)
chain: EITAPVTHE
modifications: EITAPVTHE. The paper numbers the peptide from E176, so printed Ile179 (I of IPV) is UniProt I181. Peptide termini chemistry is not stated.
Regarding B5, the Kd in test [1] was > 25 µM.
